Test results as given in the Human Domainome abundance scans (Beltran et al. 2025).
± gives the uncertainty stated by the source.

B1: Tumor protein p73, residues 487 to 549; numbered along this chain, O15350 (parent)
chain: YHADPSLVSFLTGLGCPNCIEYFTSQGLQSIYHLQNLTIEDLGALKIPEQYRMTIWRGLQDLK

Variants of: B1
Assay: abundance fitness (aPCA) (normalised: wild type 0, dead -1); higher = more abundant; growth selection in yeast, the domain comes from the species named
Settings: Homo sapiens

YHADPSLVSFLTGLGCPNCIEYFTSQGLQSIYHLQNLTIEDLGALKIPEQYRMTIWRGLQDLL [K63L] and YHADPSLVSFLTGLGCPNCIEYFTSQGLQSEYHLQNLTIEDLGALKIPEQYRMTIWRGLQDLK [I31E] are within error of each other in abundance fitness: -0.261 ± 0.087 for the first, -0.129 ± 0.045 for the second.

YHADPSLVSFLTGLGCPNCIEYFTSQGLQSHYHLQNLTIEDLGALKIPEQYRMTIWRGLQDLK [I31H] and YHADPSLVSFLTGLGCPNCIEYFTSQGLQSNYHLQNLTIEDLGALKIPEQYRMTIWRGLQDLK [I31N] are within error of each other in abundance fitness: -0.156 ± 0.06 for the first, -0.086 ± 0.051 for the second.

Going from YHADPSLVSFLTGLGCPNCIEYFTSQGLQSDYHLQNLTIEDLGALKIPEQYRMTIWRGLQDLK [I31D] to YHADPSLVSFLTGLGCPNCIEYFTSQGLQSIYHLQNLTIEDLGALKIPEQYWMTIWRGLQDLK [R52W], the abundance fitness rises from -0.269 ± 0.068 to -0.082 ± 0.048.

YHADPSLVSFLTGLGAPNCIEYFTSQGLQSIYHLQNLTIEDLGALKIPEQYRMTIWRGLQDLK [C16A] and YHADPSLVSFLTGLGCPNCIEYFTDQGLQSIYHLQNLTIEDLGALKIPEQYRMTIWRGLQDLK [S25D] are within error of each other in abundance fitness: -0.176 ± 0.066 for the first, -0.074 ± 0.14 for the second.

YHADPSLVSFLTGLGCPNCIEYFTEQGLQSIYHLQNLTIEDLGALKIPEQYRMTIWRGLQDLK [S25E] and YHADPSLVSFLTGLGCPNCIEYFTSQNLQSIYHLQNLTIEDLGALKIPEQYRMTIWRGLQDLK [G27N] are within error of each other in abundance fitness: 0.129 ± 0.046 for the first, -0.055 ± 0.22 for the second.

First: YHADPSLVSFLTGLGCPNCIEYFTSQGLQSIYHLQNLTIEDLGALKIPEYYRMTIWRGLQDLK [Q50Y]
Second: YHADPSLVSFLTGLGCPNCIEYFTSQGLQSIYHLQNLTIEDLGALKIPECYRMTIWRGLQDLK [Q50C]
The abundance fitness of the first is lower: -0.297 ± 0.086 for the first, 0.096 ± 0.059 for the second.

First: YHADPSLVSFLTGLGCPNCIEYFTSQGLQSIYHLQNLTIEDLGALKIPELYRMTIWRGLQDLK [Q50L]
Second: YHADPSLVSALTGLGCPNCIEYFTSQGLQSIYHLQNLTIEDLGALKIPEQYRMTIWRGLQDLK [F10A]
The abundance fitness of the first is higher: -0.036 ± 0.037 for the first, -0.535 ± 0.069 for the second.

First: YHADPWLVSFLTGLGCPNCIEYFTSQGLQSIYHLQNLTIEDLGALKIPEQYRMTIWRGLQDLK [S6W]
Second: YHADPSLVSFLTGLGCPICIEYFTSQGLQSIYHLQNLTIEDLGALKIPEQYRMTIWRGLQDLK [N18I]
The abundance fitness of the first is lower: -0.212 ± 0.061 for the first, 0.005 ± 0.079 for the second.

Compared with YHADPSLVSFLTGLGCPNCIEYFTSQGLQSIYHLQNLTIHDLGALKIPEQYRMTIWRGLQDLK [E40H], YHADPSLVSFLTGLGCPNCIEYHTSQGLQSIYHLQNLTIEDLGALKIPEQYRMTIWRGLQDLK [F23H] is lower in abundance fitness: -0.005 ± 0.11 for the first, -0.81 ± 0.27 for the second.

First: YHADPSLVSFLTGLGCPNCIEYFTSQGLQSIYHLQNLTIEDLGALKIPEQYRMVIWRGLQDLK [T54V]
Second: YHADPSLVSFLTGLGCPNCIEYFTSQGLQSIYHLQNLCIEDLGALKIPEQYRMTIWRGLQDLK [T38C]
The abundance fitness of the first is higher: 0.088 ± 0.038 for the first, -0.073 ± 0.073 for the second.

YHADPSLVSFLTGLGCPNCIEYFTSQGLQSIYHLQNLVIEDLGALKIPEQYRMTIWRGLQDLK [T38V] and YHADPSLVSFLTGLGCPNCIEYFTSQGLQSIYHLQNLTIEDLGALKIPEQYRMTIWIGLQDLK [R57I] are within error of each other in abundance fitness: -0.106 ± 0.033 for the first, -0.24 ± 0.2 for the second.

Going from YHADPSLVSFLTGLGCPNCIEYFTSQGLQSIYHLQNLTIEDLGALKIPEQYRMTIWKGLQDLK [R57K] to YHSDPSLVSFLTGLGCPNCIEYFTSQGLQSIYHLQNLTIEDLGALKIPEQYRMTIWRGLQDLK [A3S], the abundance fitness rises from -0.011 ± 0.048 to 0.268 ± 0.054.

First: YHPDPSLVSFLTGLGCPNCIEYFTSQGLQSIYHLQNLTIEDLGALKIPEQYRMTIWRGLQDLK [A3P]
Second: YHADPSLVSFLTGLGCPNKIEYFTSQGLQSIYHLQNLTIEDLGALKIPEQYRMTIWRGLQDLK [C19K]
The abundance fitness of the first is higher: 0.361 ± 0.099 for the first, -0.726 ± 0.088 for the second.

First: YHADPSLVSFLTGLGCPNPIEYFTSQGLQSIYHLQNLTIEDLGALKIPEQYRMTIWRGLQDLK [C19P]
Second: YHADPSLVSFLTGLGCPNCIEYFTSQGLQSIYHLQNLTIEDLGALKINEQYRMTIWRGLQDLK [P48N]
The abundance fitness of the first is lower: -0.97 ± 0.12 for the first, -0.261 ± 0.1 for the second.

First: YHADPSLVSFLTQLGCPNCIEYFTSQGLQSIYHLQNLTIEDLGALKIPEQYRMTIWRGLQDLK [G13Q]
Second: YHADPSLVSFLTGLGCPNCIEYFTSQGLQSIYHLQNLTIEDLGALKIPEQYRMTIWRGLQPLK [D61P]
The abundance fitness of the first is higher: 0.024 ± 0.047 for the first, -0.092 ± 0.051 for the second.

First: YHADPSLVSFLTGLGCPNCIEYFTSQGLQSIYHLQNLTIEDLGALKIPEQYRMTIWRGLNDLK [Q60N]
Second: YHADPSLVSFLTGLGCPNCIEYFTSQGLQSIYHLQNLTIEDLGALKDPEQYRMTIWRGLQDLK [I47D]
The abundance fitness of the first is higher: 0.089 ± 0.057 for the first, -0.477 ± 0.13 for the second.

First: YHADPSLVSFLTGLGCPNCIEYFTSQGLQSIYHLQNLTIEDLGALKGPEQYRMTIWRGLQDLK [I47G]
Second: PHADPSLVSFLTGLGCPNCIEYFTSQGLQSIYHLQNLTIEDLGALKIPEQYRMTIWRGLQDLK [Y1P]
The abundance fitness of the first is lower: -0.913 ± 0.053 for the first, 0.161 ± 0.14 for the second.

First: RHADPSLVSFLTGLGCPNCIEYFTSQGLQSIYHLQNLTIEDLGALKIPEQYRMTIWRGLQDLK [Y1R]
Second: YHADPSLVSFLTGLGCPNCIEYFTSQGLQSIYHLQELTIEDLGALKIPEQYRMTIWRGLQDLK [N36E]
The abundance fitness of the first is lower: -0.175 ± 0.054 for the first, 0.087 ± 0.043 for the second.

YHADPSLVSFLTGLGCPNCIEYFTSQGLQSIYHLQVLTIEDLGALKIPEQYRMTIWRGLQDLK [N36V] and YHADPSLVSFLTGLGCPNCIEYFTSQGLQSIYHLQWLTIEDLGALKIPEQYRMTIWRGLQDLK [N36W] are within error of each other in abundance fitness: -0.025 ± 0.035 for the first, -0.078 ± 0.046 for the second.

Compared with YHADPSLVSFLTGLGCPNCIEYFTSQGLQSIYHLQDLTIEDLGALKIPEQYRMTIWRGLQDLK [N36D], YHADPSLVSFLTGLGCPNCIEYFTSQGLQSIYHLQNLTIEDLGALKIPEQYRMTIVRGLQDLK [W56V] is lower in abundance fitness: 0.075 ± 0.039 for the first, -0.048 ± 0.043 for the second.

YHADPSLVSFLTGLGCPNCIEYFTSQGLQSIYHLQNLTIEDLGALKIPEQYRMTIFRGLQDLK [W56F] and YHADPSLVSFLTGLGCPNCIEYFTSQGLQSIYHLQNLTIEDLGALKIPEQYRMTIYRGLQDLK [W56Y] are within error of each other in abundance fitness: 0.075 ± 0.07 for the first, 0.037 ± 0.066 for the second.

Work on YHADPSLVSFLTGLGCPNCIEYFTSQGLQSIYHLQNLTIEDLGWLKIPEQYRMTIWRGLQDLK [A44W] yielded an abundance fitness of -0.083 ± 0.038.
